This is an account of results in article doi:10.1101/2023.09.23.559074, “Direct ionic stress sensing and mitigation by the transcription factor NFAT5” (bioRxiv, 2023).

The data set deals with the molecule itself. Kind of data set: in vitro phase separation (droplet) assay, fluorescence or brightfield microscopy; purified protein in droplet buffer (20 mM Na-HEPES pH 7.4, 1 mM TCEP) with 5% dextran, NaCl (or other salts) added to the indicated osmolarity; 10 min at room temperature; self-association into droplets.

B1: GFP-PLD (superfolder GFP fused to the prion-like domain of NFAT5, a.a. 999-1454) (domain or fragment, human, UniProt O94916 999-1454, looked up)
chain: QIQNSVFQTMVQMQHSGDNQPQVNLFSSTKSMMSVQNSGTQQQGNGLFQQGNEMMSLQSGNFLQQSSHSQAQLFHPQNPIADAQNLSQETQGSLFHSPNPIVHSQTSTTSSEQMQPPMFHSQSTIAVLQGSSVPQDQQSTNIFLSQSPMNNLQTNTVAQEAFFAAPNSISPLQSTSNSEQQAAFQQQAPISHIQTPMLSQEQAQPPQQGLFQPQVALGSLPPNPMPQSQQGTMFQSQHSIVAMQSNSPSQEQQQQQQQQQQQQQQQQQSILFSNQNTMATMASPKQPPPNMIFNPNQNPMANQEQQNQSIFHQQSNMAPMNQEQQPMQFQSQSTVSSLQNPGPTQSESSQTPLFHSSPQIQLVQGSPSSQEQQVTLFLSPASMSALQTSINQQDMQQSPLYSPQNNMPGIQGATSSPQPQATLFHNTAGGTMNQLQNSPGSSQQTSGMFLFGIQNN
notes: NFAT5 (TonEBP), human, 1531 a.a. protein; prion-like domain (PLD), a.a; 999-1454; The methods for the bacterial construct say only 'NFAT5 PLD'; also called GFP-NFAT5 PLD; not shown: sfGFP, N-terminal, kept
Consider B1, for which the binding result is “binds”.

B2: untagged NFAT5 PLD (PLD protein lacking the GFP tag) (domain or fragment, human, UniProt O94916 999-1454, looked up)
chain: QIQNSVFQTMVQMQHSGDNQPQVNLFSSTKSMMSVQNSGTQQQGNGLFQQGNEMMSLQSGNFLQQSSHSQAQLFHPQNPIADAQNLSQETQGSLFHSPNPIVHSQTSTTSSEQMQPPMFHSQSTIAVLQGSSVPQDQQSTNIFLSQSPMNNLQTNTVAQEAFFAAPNSISPLQSTSNSEQQAAFQQQAPISHIQTPMLSQEQAQPPQQGLFQPQVALGSLPPNPMPQSQQGTMFQSQHSIVAMQSNSPSQEQQQQQQQQQQQQQQQQQSILFSNQNTMATMASPKQPPPNMIFNPNQNPMANQEQQNQSIFHQQSNMAPMNQEQQPMQFQSQSTVSSLQNPGPTQSESSQTPLFHSSPQIQLVQGSPSSQEQQVTLFLSPASMSALQTSINQQDMQQSPLYSPQNNMPGIQGATSSPQPQATLFHNTAGGTMNQLQNSPGSSQQTSGMFLFGIQNN
notes: NFAT5 (TonEBP), human, 1531 a.a. protein; prion-like domain (PLD), a.a; 999-1454; source: E. coli BL21 (DE3) pLysS, purified from inclusion bodies (8 M urea extraction, Superdex 200)
Take B2: the binding result is given as “binds”.

B3: GFP-CTD (superfolder GFP fused to the C-terminal domain of NFAT5, a.a. 544-1531) (domain or fragment, human, UniProt O94916 544-1531, looked up)
chain: DPAAAGALNVNVKKEISSPARPCSFEEAMKAMKTTGCNLDKVNIIPNALMTPLIPSSMIKSEDVTPMEVTAEKRSSTIFKTTKSVGSTQQTLENISNIAGNGSFSSPSSSHLPSENEKQQQIQPKAYNPETLTTIQTQDISQPGTFPAVSASSQLPNSDALLQQATQFQTRETQSREILQSDGTVVNLSQLTEASQQQQQSPLQEQAQTLQQQISSNIFPSPNSVSQLQNTIQQLQAGSFTGSTASGSSGSVDLVQQVLEAQQQLSSVLFSAPDGNENVQEQLSADIFQQVSQIQSGVSPGMFSSTEPTVHTRPDNLLPGRAESVHPQSENTLSNQQQQQQQQQQVMESSAAMVMEMQQSICQAAAQIQSELFPSTASANGNLQQSPVYQQTSHMMSALSTNEDMQMQCELFSSPPAVSGNETSTTTTQQVATPGTTMFQTSSSGDGEETGTQAKQIQNSVFQTMVQMQHSGDNQPQVNLFSSTKSMMSVQNSGTQQQGNGLFQQGNEMMSLQSGNFLQQSSHSQAQLFHPQNPIADAQNLSQETQGSLFHSPNPIVHSQTSTTSSEQMQPPMFHSQSTIAVLQGSSVPQDQQSTNIFLSQSPMNNLQTNTVAQEAFFAAPNSISPLQSTSNSEQQAAFQQQAPISHIQTPMLSQEQAQPPQQGLFQPQVALGSLPPNPMPQSQQGTMFQSQHSIVAMQSNSPSQEQQQQQQQQQQQQQQQQQSILFSNQNTMATMASPKQPPPNMIFNPNQNPMANQEQQNQSIFHQQSNMAPMNQEQQPMQFQSQSTVSSLQNPGPTQSESSQTPLFHSSPQIQLVQGSPSSQEQQVTLFLSPASMSALQTSINQQDMQQSPLYSPQNNMPGIQGATSSPQPQATLFHNTAGGTMNQLQNSPGSSQQTSGMFLFGIQNNCSQLLTSGPATLPDQLMAISQPGQPQNEGQPPVTTLLSQQMPENSPLASSINTNQNIEKIDLLVSLQNQGNNLTGSF
notes: NFAT5 (TonEBP), human, 1531 a.a. protein; C-terminal domain (CTD), a.a; 544-1531; The methods for the bacterial construct (pET-28a) say only 'NFAT5 CTD'; also called GFP-NFAT5 CTD; NFAT5 GFP-CTD; not shown: sfGFP, N-terminal, kept
For the protein B3, the binding result is “binds”.

B4: untagged NFAT5 CTD (CTD protein lacking the GFP tag) (domain or fragment, human, UniProt O94916 544-1531, looked up)
chain: DPAAAGALNVNVKKEISSPARPCSFEEAMKAMKTTGCNLDKVNIIPNALMTPLIPSSMIKSEDVTPMEVTAEKRSSTIFKTTKSVGSTQQTLENISNIAGNGSFSSPSSSHLPSENEKQQQIQPKAYNPETLTTIQTQDISQPGTFPAVSASSQLPNSDALLQQATQFQTRETQSREILQSDGTVVNLSQLTEASQQQQQSPLQEQAQTLQQQISSNIFPSPNSVSQLQNTIQQLQAGSFTGSTASGSSGSVDLVQQVLEAQQQLSSVLFSAPDGNENVQEQLSADIFQQVSQIQSGVSPGMFSSTEPTVHTRPDNLLPGRAESVHPQSENTLSNQQQQQQQQQQVMESSAAMVMEMQQSICQAAAQIQSELFPSTASANGNLQQSPVYQQTSHMMSALSTNEDMQMQCELFSSPPAVSGNETSTTTTQQVATPGTTMFQTSSSGDGEETGTQAKQIQNSVFQTMVQMQHSGDNQPQVNLFSSTKSMMSVQNSGTQQQGNGLFQQGNEMMSLQSGNFLQQSSHSQAQLFHPQNPIADAQNLSQETQGSLFHSPNPIVHSQTSTTSSEQMQPPMFHSQSTIAVLQGSSVPQDQQSTNIFLSQSPMNNLQTNTVAQEAFFAAPNSISPLQSTSNSEQQAAFQQQAPISHIQTPMLSQEQAQPPQQGLFQPQVALGSLPPNPMPQSQQGTMFQSQHSIVAMQSNSPSQEQQQQQQQQQQQQQQQQQSILFSNQNTMATMASPKQPPPNMIFNPNQNPMANQEQQNQSIFHQQSNMAPMNQEQQPMQFQSQSTVSSLQNPGPTQSESSQTPLFHSSPQIQLVQGSPSSQEQQVTLFLSPASMSALQTSINQQDMQQSPLYSPQNNMPGIQGATSSPQPQATLFHNTAGGTMNQLQNSPGSSQQTSGMFLFGIQNNCSQLLTSGPATLPDQLMAISQPGQPQNEGQPPVTTLLSQQMPENSPLASSINTNQNIEKIDLLVSLQNQGNNLTGSF
notes: NFAT5 (TonEBP), human, 1531 a.a. protein; C-terminal domain (CTD), a.a; 544-1531; source: E. coli BL21 (DE3) pLysS, purified from inclusion bodies (8 M urea extraction, Superdex 200)
Take B4: the binding result was “binds”.
